From patent US20060193821 come the findings set out here.

Series [1] addresses T1, IL-23 (human, p19/p40 heterodimer) (Homo sapiens) (UniProt Q9NPF7+P29460). Briefly: filter. The following applies: 2'-F C,U; SHMCK, tRNA.
Series [2] concerns the target T1, IL-23 (human, p19/p40 heterodimer) (Homo sapiens). The experiment in a line: cell_activity. As to conditions: 2'-F C and U, 2'-OH A and G; TransAM STAT3, PHA blasts.
Series [3] concerns the target T2, IL-12 (mouse, p35/p40 heterodimer) (Mus musculus) (UniProt P43431+P43432).
T2 sequence 1: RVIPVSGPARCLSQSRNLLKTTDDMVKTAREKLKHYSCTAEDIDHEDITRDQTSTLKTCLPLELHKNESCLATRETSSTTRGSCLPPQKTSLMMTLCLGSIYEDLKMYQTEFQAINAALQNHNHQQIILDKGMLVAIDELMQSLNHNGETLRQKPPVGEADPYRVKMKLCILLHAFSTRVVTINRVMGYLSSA
T2 sequence 2: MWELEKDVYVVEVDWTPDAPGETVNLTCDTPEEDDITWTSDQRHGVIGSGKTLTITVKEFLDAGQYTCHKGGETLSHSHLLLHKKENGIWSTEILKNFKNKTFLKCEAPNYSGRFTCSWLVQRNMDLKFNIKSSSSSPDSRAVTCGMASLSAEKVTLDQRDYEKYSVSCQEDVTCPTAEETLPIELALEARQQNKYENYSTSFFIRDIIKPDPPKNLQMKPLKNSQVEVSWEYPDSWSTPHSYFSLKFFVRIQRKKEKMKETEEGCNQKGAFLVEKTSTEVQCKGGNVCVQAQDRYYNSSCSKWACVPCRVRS
Briefly: filter. As to conditions: 2'-F all C and U (rRfY); 1X PBS, 0.1 mg/mL BSA, 30 min RT.

Series [4] addresses T3, IL-23 (mouse, p19/p40 heterodimer) (Mus musculus) (UniProt Q9EQ14+P43432).
T3 sequence 1: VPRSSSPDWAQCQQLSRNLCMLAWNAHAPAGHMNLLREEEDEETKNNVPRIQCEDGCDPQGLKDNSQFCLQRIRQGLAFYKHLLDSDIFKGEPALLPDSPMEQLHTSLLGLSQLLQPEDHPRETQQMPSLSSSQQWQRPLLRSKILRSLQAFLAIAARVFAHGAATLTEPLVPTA
T3 sequence 2: T2 sequence 2
Briefly: filter. The following applies: 2'-F all C and U (rRfY); 1X PBS, 0.1 mg/mL BSA, 30 min RT.

pIC50, pKd: −log10 of the molar value. Bounds are passed on as bounds.

T1 sequence (Q9NPF7 20-189, chain 1 of 2): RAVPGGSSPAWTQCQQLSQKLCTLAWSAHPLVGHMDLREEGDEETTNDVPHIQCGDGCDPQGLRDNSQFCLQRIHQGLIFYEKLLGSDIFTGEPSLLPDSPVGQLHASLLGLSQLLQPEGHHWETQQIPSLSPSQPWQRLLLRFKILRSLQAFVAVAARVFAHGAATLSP
T1 sequence (P29460 23-328, chain 2 of 2): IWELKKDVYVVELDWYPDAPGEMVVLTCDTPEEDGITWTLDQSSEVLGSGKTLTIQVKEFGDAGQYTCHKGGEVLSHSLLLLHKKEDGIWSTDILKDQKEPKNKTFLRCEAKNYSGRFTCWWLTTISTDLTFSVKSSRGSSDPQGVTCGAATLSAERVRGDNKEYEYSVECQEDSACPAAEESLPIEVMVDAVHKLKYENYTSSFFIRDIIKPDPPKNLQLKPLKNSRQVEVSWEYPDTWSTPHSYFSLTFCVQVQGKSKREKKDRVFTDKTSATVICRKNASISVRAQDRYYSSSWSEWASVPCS

In series [1], “AGGGAAAAGGAAUCAUACACAAGAUGUAUCAUCCGGUCGUACAAAAGCGCCACGGAACCAUUCGCUCCGCCAGANACCAACCGAGAA [ARX33-plate1-H01]” gave a pKd of 7.11. Further, the pIC50 in series [2] was less than 5.30.

In the case of “GGAGCGCACUCAGCCACUGGGGAACAUCUCAUGUCUCUGACCGCUCUUGCAGUAGAAUUUNGACCUCUCUGCUAGC [AMX369.G3]”, the pKd was 6.58 in series [3] and 6.97 in series [4].

For “GGAGCGCACUCAGCCACGGUUUACUUCCGUGGCAAUAUUGACCUCNCUCUAGACAGGUUUCGACCUCUCUGCUAGC [AMX369.F1]”, the figures for the pKd in series [3] and in series [4] were 6.78 and 7.20, respectively.

As to “GGAGCGCACUCNGCCACUUCGGAAUAUCGUUGUCUUCUGGGUGAGCAUGCGUUGAGGUUUCNACCUCUCUGCUAGC [AMX369.B2]”, the pKd in series [3] was 6.60; in series [4] it was 7.31.

The term pKd denotes the Kd on a negative log10 scale, so that one unit is a factor of ten. Low values mean a large Kd, high ones a small Kd. As usually defined, the pIC50 is the negative decadic logarithm of the IC50, by convention in mol/L. A high value points to a low IC50.
